Experimental data published in patent US5145837A, “Treatment of arthritis” (Sandoz Ltd., priority 1988, dated 1992).

Columns and labels:
Tolerability = conditions: in vivo
[1] = system: prostaglandin E2 production in mouse calvariae; test: Inhibitory effect on prostaglandin E2 production stimulated by PTH in organ cultures of mouse calvariae; format: cell-based
Experimental: Organ cultures of mouse calvariae are first prepared according to the principles of U. L. Ivey, D. R. Wright, A. H. Tashjian, J. Clin. Invest. 58:1327 (1976) as follows:
Frontal and parietal bones are dissected from neonatal (5 to 6-day-old) mice (strain CD-1), split along the sagittal suture, and cultured in 2 ml of BGJ-medium containing 1 mg/ml bovine serum albumin, penicillin and streptomycin in 35 mm plastic tissue culture wells. […]
The cells are cultured for another 48 hours. During the entire culture period, the multi-well dishes are shaken on a rocker platform (15 oscillations/min) in a humidified atmosphere of 5% CO2 in air at 37° C. The calvaria-conditioned medium is harvested and placed at 4° C.
An aliquot of the medium is then assayed for prostaglandin E2 using a standard radioimmunossay. Prostaglandin E2 levels are reduced.

Molecule | tolerated dose (Tolerability) | PGE2 synthesis ([1]; PTH 10^-7 M alone (so in the source)) | PGE2 synthesis ([1]; PTH 10^-10 M alone)
C[C@@H](O)[C@@H]1NC(=O)[C@H](CCCCN)NC(=O)[C@@H](Cc2c[nH]c3ccccc23)NC(=O)[C@H](Cc2ccccc2)NC(=O)[C@@H](NC(=O)[C@H](N)Cc2ccccc2)CSSC[C@@H](C(=O)N[C@H](CO)[C@@H](C)O)NC1=O [Compound IVa] | ≥ 1 mg | – | –
PTH: parathyroid hormone used to stimulate prostaglandin E2 production (protein, UniProt P01270 32-115, looked up, Parathyroid hormone, parathyroid hormone used to stimulate prostaglandin E2 production) Parathyroid hormone: SVSEIQLMHNLGKHLNSMERVEWLRKKLQDVHNFVALGAPLAPRDAGSQRPRKKEDNVLVESHEKSLGEADKADVNVLTKAKSQ | – | 340 pg/mL | 50 pg/mL
